# Entries after “also recorded” stand apart in the source; their conditions may differ.
# B1: annexin V: human annexin V (1st to 319th amino acids) cloned into pET28a, expressed in E. coli, 37 kDa (protein, UniProt P08758 1-319, looked up, fragment)
# chain: MAQVLRGTVTDFPGFDERADAETLRKAMKGLGTDEESILTLLTSRSNAQRQEISAAFKTLFGRDLLDDLKSELTGKFEKLIVALMKPSRLYDAYELKHALKGAGTNEKVLTEIIASRTPEELRAIKQVYEEEYGSSLEDDVVGDTSGYYQRMLVVLLQANRDPDAGIDEAQVEQDAQALFQAGELKWGTDEEKFITIFGTRSVSHLRKVFDKYMTISGFQIEETIDRETSGNLEQLLLAVVKSIRSIPAYLAETLYYAMKGAGTDDHTLIRVMVSRSEIDLFNIRKEFRKNFATSLYSMIKGDTSGDYKKALLLLCGED
# B2: PH domain: human Akt PH domain (1st to 144th amino acids) cloned into pET28a, expressed in E. coli, 21 kDa (protein, UniProt P31749 1-144, looked up, fragment)
# chain: MSDVAIVKEGWLHKRGEYIKTWRPRYFLLKNDGTFIGYKERPQDVDQREAPLNNFSVAQCQLMKTERPRPNTFIIRCLQWTTVIERTFHVETPEEREEWTTAIQTVADGLKKQEEEEMDFRSGSPSDNSGAEEMEVSLAKPKHR
# modifications: PH domain
# notes: human Akt PH domain (1st to 144th amino acids) cloned into pET28a, expressed in E. coli, 21 kDa
# Assays:
# [1] = tested on: PtdIns(3,4,5)P3 externalized on the surface of apoptotic HeLa and CHO cells; test: binding of recombinant Akt protein to apoptotic cells (confocal microscopy); type: cell-based; settings: through PH domain; 2 μg protein
# Protocol: First, HeLa and CHO cells were treated with 4 μM camptothecin for 6 hours to induce apoptosis, fixed with formalin (10% neutral buffered) for 5 minutes, and washed twice with PBS. Then, the cells were treated with the serum-free protein blocking solution (Dako), and cultured along with 2 μg of recombinant Akt proteins (Millipore) for 30 minutes. Then, the HeLa and CHO cells, which were bound to Akt proteins, were treated with rabbit anti-CD14 antibody (HPA00212; 1:200, Sigma-Aldrich USA) or the anti-Akt pleckstrin homology (PH) domain antibody of monoclonal mouse (05-591, 1:100, Millipore) for 30 minutes, and treated with FITC-labeled secondary antibody for 30 minutes. Then, the resultant was counterstained with DAPI to visualize nuclei, and counterstained with propidium iodide to distinguish apoptotic cells.
# (§1) Then, the cells were placed on a microscope and photographed by the Zeiss LSM 710 laser-scanning confocal microscope (Carl Zeiss) with appropriate excitation using a release filter set. The images were photographed using 40× oil immersion lens. The fluorescence intensity of the unprocessed original images was quantified using ZEN 2010 software (Carl Zeiss).
# liver Kupffer cells = test: phagocytosis of IC-InsP6 by liver Kupffer cells after intra-arterial injection; type: in vivo, C57BL/6 mice
# RAW264.7 macrophages = test: IC-InsP6 absorption by RAW264.7 macrophages; type: cell-based; settings: treatment concentration-dependent
# [2] = tested on: Thioglycollate-elicited peritoneal macrophages (Thio-pMacs); test: IC-InsP6 absorption by peritoneal macrophages (Prussian blue staining); type: cell-based, C57BL/6 mouse; settings: compared to non-activated Thio-pMacs; 0 mM to 0.5 mM, 4 hours; concentration-dependent
# Protocol: Thioglycollate-elicited peritoneal macrophages (Thio-pMacs) in a C57BL/6 mouse were obtained. Specifically, 2 mL of 3% Brewer thioglycollate medium (Difco, Detroit, Mich., USA) was intraperitoneally injected the mouse, and 3 to 5 days thereafter, the peritoneum of the mouse was washed with cold PBS to recover peritoneal macrophages. The cells were centrifuged at 1,500 rpm for 5 minutes. The resulting pellet was washed 3 times with PBS, resuspended in DMEM medium containing 10% FBS (Gibco), and cultured on the cover glass in a 6-well plate (Nunc, Fisher Scientific) at a density of 1×10^5 cells/mL. The cells were cultured by adhesion culture, and the slides were washed to remove the suspending cells. Then, the adhered Thio-pMacs cells were cultured according to the presence of LPS (0.5 μg/mL) for 6 hours. LPS induces the activation of Thio-pMacs.
# After cultivation, the cells were treated with IC-InsP6 (0 mM to 0.5 mM) for 4 hours. The cells were washed with PBS to remove free IC-InsP6, fixed with formalin (10% neutral buffered) for 5 minutes, and stained as described below for the confirmation of intracellular iron absorption. Specifically, the cover glass was placed in a staining solution (5% potassium ferrocyanide and 12% HCl) for 1 hour, washed 3 times with distilled water, and stained with Prussian blue. […]
# [3] = protein-lipid overlay assay and immunoblotting (PIP strips or PIP arrays); type: binding; settings: mixed with 5 μM CaCl2
# Protocol: (§2) To confirm whether the inositol phosphpate groups of various phosphatidylinositol phosphates directly bind to macrophage CD14 receptors, a protein-lipid overlay assay was performed using the full-length recombinant human CD14 proteins and variant CD14 proteins prepared in Example 2-2. PIP strips or PIP arrays were purchased from Echelon Biosciences.
# (§3) After culturing a cell membrane for 15 minutes, non-specific bindings to the cell membrane was blocked using TBS-T (50 mM Tris, 0.15 M NaCl, and 0.05% Tween-20, pH 7.4, EDTA-free protease inhibitor cocktail; Roche, Germany) containing 3% BSA. After the blocking, the cell membrane was incubated along with each of the purified recombinant CD14 proteins (100 ρmol) for 30 minutes, washed 3 times with PBS, incubated again with anti-CD14 (rabbit, HPA002127; Sigma-Aldrich), and incubated with horseradish peroxidase (HRP)-labeled secondary antibody (goat; HAF007; R&D Systems) for 30 minutes. The binding was detected using the ImageQuant LAS 4000 (Fujifilm, Japan). As described in Toda et al. (Mol Cell Biol 32, 118, 2012), PIP-affinity bead pulldowns were performed.
# To confirm whether the PKCβ1 C2 domain-Myc protein and the inositol phosphpate group in various phosphatidylinositol phosphates directly bind to each other, protein-lipid overlay assay and immunoblotting were performed in the same manner as in Example 2-3. The PIP strip or PIP array was purchased from Echelon Biosciences.
# Annexin V, which is known to specifically bind to phosphatidylserine, was subjected to protein-lipid overlay assay and immunoblotting in the same manner as in Example 2-3.
# apoptotic CHO cells = test: detection of apoptosis by recombinant PH domain and annexin V (confocal microscopy); type: cell-based; settings: 4 μM camptothecin 6 hours
# Protocol: (§4) First, apoptosis was induced in CHO cells by treating them with 4 μM camptothecin for 6 hours, and the cells were fixed with formalin (10% neutral buffered) for 5 minutes and washed twice with PBS. Then, the cells were treated with a serum-free protein blocking solution (DAKO) along with the recombinant PH domain prepared in Example 5-1 for 30 minutes. Then, the cells were treated with the anti-Akt PH domain antibody of monoclonal mouse (05-591, 1:100, Millipore) and then treated with FITC-labeled secondary antibody for 30 minutes. Then, the cells were washed with PBS, fixed with formalin (10% neutral buffered) for 5 minutes, and stained. The cells were counterstained with propidium iodide to distinguish apoptotic cells.
# (§5) The recombinant annexin V prepared in Example 5-1 was subjected to an experiment in the same manner and analyzed by FACS.
# as §1
# apoptotic cells = test: flow cytometer analysis of apoptosis; type: cell-based; settings: FIG. 14
# Protocol: as §4, §5
# [4] = protein-lipid overlay assay, other lipids on the strip; type: binding; settings: mixed with 5 μM CaCl2
# Protocol: as §2, §3
# To confirm whether the PKCβ1 C2 domain-Myc protein and the inositol phosphpate group in various phosphatidylinositol phosphates directly bind to each other, protein-lipid overlay assay and immunoblotting were performed in the same manner as in Example 2-3. […]
molecule,measurement,setting,value
"recombinant Akt protein: recombinant Akt proteins (Millipore), PH domain-containing protein","binding to PtdIns(3,4,5)P3 externalized on the surface of apoptotic cells",[1],binds; also recorded: can bind
Iron-Calcium-InsP6 (phytate) [IC-InsP6],phagocytosis of IC-InsP6 by CD14-defective Kupffer cells,"liver Kupffer cells; CD14-defective mice, intra-arterial injection",hardly phagocytized
same,phagocytosis of IC-InsP6 by wild-type Kupffer cells,liver Kupffer cells; wild-type mice,effectively phagocytized
same,phagocytosis of IC-InsP6 by RAW264.7 macrophages,RAW264.7 macrophages,effective phagocytosis
same,phagocytosis of IC-InsP6 by LPS-activated Thio-pMacs,[2],effective phagocytosis
B1,"binding to PI(3,5)P2, PI(4,5)P2, and PI(3,4,5)P3",[3],strongest bindings
same,"binding to PI(5)P, PI(3)P, PI(4)P and PI(3,4)P2",[3],also shown to bind
same,binding to various kinds of phosphatidylinositol phosphates,[3]; 100 ρmol,shown to bind
same,binding on the surfaces of apoptotic cells / detection of apoptosis,apoptotic CHO cells; FIG. 13,bind at different locations from each other
same,detection in apoptotic cells by flow cytometer,apoptotic cells,simultaneously detected
same,binding to phosphatidylserine,[4],did not bind
B2,binding on the surfaces of apoptotic cells / detection of apoptosis,apoptotic CHO cells; FIG. 13,bind at different locations from each other
same,binding on the surfaces of apoptotic cells / detection of apoptosis,"apoptotic CHO cells; FIG. 13, listed as recombinant PH domain",can detect apoptosis
same,detection in apoptotic cells by flow cytometer,apoptotic cells,appeared

# From patent US10684273B2, “Use of phosphatidylinositol phosphate-binding material for apoptosis detection” (GIL MEDICAL CENTER, priority 2015, dated 2020)
